In patent US20040053837A1 (LUDWIG INSTITUTE FOR CANCER RESEARCH, published 2004):

Columns and labels:
[1] = biological target: T1, human PDGF alpha-receptor (human, UniProt P16234 24-1089); test: competition with 125I-PDGF-BB on PAE-1 cells expressing human PDGF alpha-receptor
T1 construct: whole, on cells; also called PDGF receptor alpha; PDGFR-alpha
Method: (§1) Next, full length and truncated PDGF-C were tested for their capacity to bind to human PDGF receptors alpha and beta by analyzing their abilities to compete with PDGF-BB for binding to PDGF receptors. The binding experiments were performed on porcine aortic endothelial-1 (PAE-1) cells stably expressing the human PDGF receptors alpha and beta (Eriksson et al., EMBO J, 1992, 11, 543-550). Binding experiments were performed essentially as in Heldin et al. (EMBO J, 1988, 7:1387-1393). Different concentrations of human full-length and truncated PDGF-C, or human PDGF-BB were mixed with 5 ng/ml of ¹²⁵I-PDGF-BB in binding buffer (PBS containing 1 mg/ml of bovine serum albumin). Aliquots were incubated with the receptor expressing PAE-1 cells plated in 24-well culture dishes on ice for 90 minutes. After three washes with binding buffer, cell-bound ¹²⁵I -PDGF-BB was extracted by lysis of cells in 20 mM Tris-HCl, pH 7.5, 10% glycerol, 1% Triton X-100. The amount of cell bound radioactivity was determined in a gamma-counter. A standard curve for the binding of ¹²⁵I-labeled PDGF BB homodimers to PAE-1 cells expressing PDGF alpha-receptor is shown in FIG. 18. An increasing excess of the unlabeled protein added to the incubations competed efficiently with cell association of the radiolabeled tracer.

human PDGF beta-receptor = biological target: T2, human PDGF beta-receptor (human, UniProt P09619 33-1106); test: direct binding of 125I-labeled truncated PDGF-C to PAE-1 cells expressing PDGF beta receptor
T2 construct: whole, on cells; also called PDGF receptor beta; PDGFR-beta
T2 sequence (P09619 33-1106): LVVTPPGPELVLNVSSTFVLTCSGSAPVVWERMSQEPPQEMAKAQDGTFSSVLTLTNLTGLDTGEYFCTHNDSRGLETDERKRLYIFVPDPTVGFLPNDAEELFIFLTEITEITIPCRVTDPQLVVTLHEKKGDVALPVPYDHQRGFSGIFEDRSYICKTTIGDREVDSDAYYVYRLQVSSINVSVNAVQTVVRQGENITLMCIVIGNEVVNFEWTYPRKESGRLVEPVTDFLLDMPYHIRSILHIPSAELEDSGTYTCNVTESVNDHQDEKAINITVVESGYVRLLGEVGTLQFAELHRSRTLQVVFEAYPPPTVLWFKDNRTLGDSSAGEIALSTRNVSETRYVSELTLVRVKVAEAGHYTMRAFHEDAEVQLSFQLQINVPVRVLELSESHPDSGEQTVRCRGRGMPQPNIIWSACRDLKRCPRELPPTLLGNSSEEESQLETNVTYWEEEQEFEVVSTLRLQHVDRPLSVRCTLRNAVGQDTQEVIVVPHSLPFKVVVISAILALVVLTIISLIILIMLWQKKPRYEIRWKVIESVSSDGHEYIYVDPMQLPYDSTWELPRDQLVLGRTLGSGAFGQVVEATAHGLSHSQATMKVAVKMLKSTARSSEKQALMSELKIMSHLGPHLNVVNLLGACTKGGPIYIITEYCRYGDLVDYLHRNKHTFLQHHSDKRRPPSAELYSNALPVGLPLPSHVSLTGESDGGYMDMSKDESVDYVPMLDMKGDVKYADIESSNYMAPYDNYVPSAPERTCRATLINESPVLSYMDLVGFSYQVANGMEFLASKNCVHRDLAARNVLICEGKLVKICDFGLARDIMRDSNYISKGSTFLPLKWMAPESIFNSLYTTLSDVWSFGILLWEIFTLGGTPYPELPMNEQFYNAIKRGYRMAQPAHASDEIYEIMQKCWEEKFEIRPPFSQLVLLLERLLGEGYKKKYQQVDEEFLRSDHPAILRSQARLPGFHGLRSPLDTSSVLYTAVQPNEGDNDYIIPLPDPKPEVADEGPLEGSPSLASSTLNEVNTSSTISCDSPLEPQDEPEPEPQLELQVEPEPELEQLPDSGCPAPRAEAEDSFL
Method: To assess the interactions between truncated PDGF-C and the PDGF alpha and beta receptors, truncated PDGF-C was tested for its capacity to bind to porcine aortic endothelial-1 (PAE-1) cells expressing PDGF alpha or beta receptors, respectively (Eriksson et al., EMBO J, 1992 11:543-550). The binding experiments were performed essentially as described in Heldin et al. (EMBO J, 1988 7:1387-1393). Five micrograms of truncated PDGF-C protein in ten microliters of sodium borate buffer was radiolabeled using the Bolton-Hunter reagent (Amersham) to a specific activity of 4×10⁵ cpm/ng. Different concentrations of radiolabeled truncated PDGF-C, with or without added unlabeled protein, in binding buffer (PBS containing 1 mg/ml of bovine serum albumin) was added to the receptor expressing PAE-1 cells plated in 24-well culture dishes on ice for 90 minutes. After three washes with binding buffer, cell-bound ¹²⁵I-labeled PDGF-C was extracted by lysis of cells in 20 mM Tris-HCl, pH 7.5, 10% glycerol, 1% Triton X-100. The amount of cell-bound radioactivity was determined in a gamma-counter. Non-specific binding was estimated by including a 100-fold molar excess of truncated PDGF-C in some experiments. […] The binding was specific as radiolabeled PDGF-C was quantitatively displaced by a 100-fold molar excess of unlabeled protein.

VEGFR-1-Ig = biological target: T3, VEGFR-1-Ig (human, UniProt P17948 27-758); test: pull-down of 35S-labelled conditioned medium with receptor-Ig on protein A-Sepharose, SDS-PAGE, phosphorimager
T3 construct: extracellular domain; Transiently expressed in 293 EBNA cells and captured on protein A-Sepharose; The construct is cited from Olofsson et al. 1998; also called soluble Ig-fusion protein containing the extracellular domain of human VEGFR-1; not shown: Ig part of the fusion
T3 sequence (P17948 27-758): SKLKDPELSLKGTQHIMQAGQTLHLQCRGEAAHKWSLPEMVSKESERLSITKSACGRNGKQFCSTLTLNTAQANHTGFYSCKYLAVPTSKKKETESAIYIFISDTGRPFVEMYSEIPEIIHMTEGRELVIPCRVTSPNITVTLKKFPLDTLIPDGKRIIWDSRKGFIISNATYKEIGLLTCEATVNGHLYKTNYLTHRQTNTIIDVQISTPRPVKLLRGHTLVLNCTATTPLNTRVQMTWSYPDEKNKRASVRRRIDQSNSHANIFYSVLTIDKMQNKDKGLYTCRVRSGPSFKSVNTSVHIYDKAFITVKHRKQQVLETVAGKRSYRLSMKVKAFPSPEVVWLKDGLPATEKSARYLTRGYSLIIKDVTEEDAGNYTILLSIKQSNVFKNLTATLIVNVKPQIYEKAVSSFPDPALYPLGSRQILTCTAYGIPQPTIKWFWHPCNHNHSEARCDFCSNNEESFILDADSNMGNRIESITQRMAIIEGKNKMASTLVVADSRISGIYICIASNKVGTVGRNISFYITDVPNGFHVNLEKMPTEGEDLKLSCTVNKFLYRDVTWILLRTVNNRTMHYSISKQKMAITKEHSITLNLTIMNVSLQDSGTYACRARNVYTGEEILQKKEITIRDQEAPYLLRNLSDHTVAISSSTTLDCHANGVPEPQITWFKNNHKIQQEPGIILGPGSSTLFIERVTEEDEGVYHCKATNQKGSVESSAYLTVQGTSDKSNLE
Method: (§2) To assess the interactions between full length and truncated PDGF-C and the VEGF receptors, full length and truncated PDGF-C were tested for their capacity to bind to soluble Ig-fusion proteins containing the extracellular domains of human VEGFR-1, VEGFR-2 and VEGFR-3 (Olofsson et al., Proc. Natl. Acad. Sci. USA, 1998 95:11709-11714). The fusion proteins, designated VEGFR-1-Ig, VEGFR-2-Ig and VEGFR-3-Ig, were transiently expressed in human 293 EBNA cells. All Ig fusion proteins were human VEGFRs. Cells were incubated for 24 hours after transfection, washed with Dulbecco's Modified Eagle Medium (DMEM) containing 0.2% bovine serum albumin and starved for 24 hours. The fusion proteins were then precipitated from the clarified conditioned medium using protein A-Sepharose beads (Pharmacia). The beads were combined with 100 microliters of 10× binding buffer (5% bovine serum albumin, 0.2% Tween 20 and 10 μg/ml heparin) and 900 microliter of conditioned medium from 293 cells that had been transfected with mammalian expression plasmids encoding full length or truncated PDGF-C or control vector, then metabolically labeled with ³⁵S-cysteine and methionine (Promix, Amersham) for 4 to 6 hours. After 2.5 hours, at room temperature, the Sepharose beads were washed 3 times with binding buffer at 4° C., once with phosphate buffered saline and boiled in SDS-PAGE buffer. Labeled proteins that were bound to the Ig-fusion proteins were analyzed by SDS-PAGE under reducing conditions. Radiolabeled proteins were detected using a phosphorimager analyzer.

VEGFR-2-Ig = biological target: T4, VEGFR-2-Ig (human, UniProt P35968 20-764); test: as above
T4 construct: extracellular domain; Transiently expressed in 293 EBNA cells and captured on protein A-Sepharose; also called soluble Ig-fusion protein containing the extracellular domain of human VEGFR-2; not shown: Ig part of the fusion
T4 sequence (P35968 20-764): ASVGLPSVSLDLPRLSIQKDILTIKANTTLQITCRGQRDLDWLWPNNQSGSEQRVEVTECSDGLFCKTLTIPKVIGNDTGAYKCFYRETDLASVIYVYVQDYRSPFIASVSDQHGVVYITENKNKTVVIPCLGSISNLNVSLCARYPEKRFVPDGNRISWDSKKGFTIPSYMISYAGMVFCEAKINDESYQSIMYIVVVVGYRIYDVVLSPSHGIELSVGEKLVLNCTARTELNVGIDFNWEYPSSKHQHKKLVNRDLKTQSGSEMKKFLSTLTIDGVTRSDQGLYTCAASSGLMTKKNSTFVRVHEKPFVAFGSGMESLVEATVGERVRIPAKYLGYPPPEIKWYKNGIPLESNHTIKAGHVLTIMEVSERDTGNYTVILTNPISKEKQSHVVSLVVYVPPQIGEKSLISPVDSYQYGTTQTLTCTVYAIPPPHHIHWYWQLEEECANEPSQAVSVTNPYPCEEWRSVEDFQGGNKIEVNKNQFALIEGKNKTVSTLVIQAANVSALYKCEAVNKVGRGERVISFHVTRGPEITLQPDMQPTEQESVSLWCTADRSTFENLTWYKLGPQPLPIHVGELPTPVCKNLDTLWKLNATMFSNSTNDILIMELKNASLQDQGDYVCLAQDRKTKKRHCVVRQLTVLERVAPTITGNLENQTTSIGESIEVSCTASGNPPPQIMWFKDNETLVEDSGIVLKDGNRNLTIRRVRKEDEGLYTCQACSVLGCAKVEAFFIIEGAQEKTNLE
Method: as §2

VEGFR-3-Ig = biological target: T5, VEGFR-3-Ig (human, UniProt P35916 25-775); test: as above
T5 construct: extracellular domain; Transiently expressed in 293 EBNA cells and captured on protein A-Sepharose; also called soluble Ig-fusion protein containing the extracellular domain of human VEGFR-3; not shown: Ig part of the fusion
T5 sequence (looked up): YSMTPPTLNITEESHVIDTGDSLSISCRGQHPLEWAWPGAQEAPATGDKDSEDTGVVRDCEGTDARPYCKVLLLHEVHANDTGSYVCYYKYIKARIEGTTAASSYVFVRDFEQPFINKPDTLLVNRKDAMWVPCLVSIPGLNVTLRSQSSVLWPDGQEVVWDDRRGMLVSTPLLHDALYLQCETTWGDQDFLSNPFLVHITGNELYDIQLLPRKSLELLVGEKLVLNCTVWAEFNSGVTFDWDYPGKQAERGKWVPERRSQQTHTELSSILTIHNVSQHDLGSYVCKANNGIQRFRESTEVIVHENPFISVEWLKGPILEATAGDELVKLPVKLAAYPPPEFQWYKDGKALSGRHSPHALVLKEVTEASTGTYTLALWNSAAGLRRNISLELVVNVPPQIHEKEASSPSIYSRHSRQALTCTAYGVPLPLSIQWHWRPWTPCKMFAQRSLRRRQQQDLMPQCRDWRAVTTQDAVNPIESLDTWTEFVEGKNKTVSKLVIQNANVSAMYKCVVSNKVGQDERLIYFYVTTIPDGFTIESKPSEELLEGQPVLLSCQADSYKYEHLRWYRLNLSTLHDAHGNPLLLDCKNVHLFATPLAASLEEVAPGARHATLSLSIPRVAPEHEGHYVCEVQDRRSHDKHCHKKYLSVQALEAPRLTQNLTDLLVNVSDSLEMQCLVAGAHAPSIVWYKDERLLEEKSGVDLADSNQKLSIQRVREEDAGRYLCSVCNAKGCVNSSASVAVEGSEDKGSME
Method: as §2

[2] = biological target: T1, human PDGF alpha-receptor; test: self-displacement standard curve, unlabeled PDGF-BB against 125I-PDGF-BB on PAE-1 cells expressing PDGF alpha-receptor
Method: as §1

T1 sequence (P16234 24-1089): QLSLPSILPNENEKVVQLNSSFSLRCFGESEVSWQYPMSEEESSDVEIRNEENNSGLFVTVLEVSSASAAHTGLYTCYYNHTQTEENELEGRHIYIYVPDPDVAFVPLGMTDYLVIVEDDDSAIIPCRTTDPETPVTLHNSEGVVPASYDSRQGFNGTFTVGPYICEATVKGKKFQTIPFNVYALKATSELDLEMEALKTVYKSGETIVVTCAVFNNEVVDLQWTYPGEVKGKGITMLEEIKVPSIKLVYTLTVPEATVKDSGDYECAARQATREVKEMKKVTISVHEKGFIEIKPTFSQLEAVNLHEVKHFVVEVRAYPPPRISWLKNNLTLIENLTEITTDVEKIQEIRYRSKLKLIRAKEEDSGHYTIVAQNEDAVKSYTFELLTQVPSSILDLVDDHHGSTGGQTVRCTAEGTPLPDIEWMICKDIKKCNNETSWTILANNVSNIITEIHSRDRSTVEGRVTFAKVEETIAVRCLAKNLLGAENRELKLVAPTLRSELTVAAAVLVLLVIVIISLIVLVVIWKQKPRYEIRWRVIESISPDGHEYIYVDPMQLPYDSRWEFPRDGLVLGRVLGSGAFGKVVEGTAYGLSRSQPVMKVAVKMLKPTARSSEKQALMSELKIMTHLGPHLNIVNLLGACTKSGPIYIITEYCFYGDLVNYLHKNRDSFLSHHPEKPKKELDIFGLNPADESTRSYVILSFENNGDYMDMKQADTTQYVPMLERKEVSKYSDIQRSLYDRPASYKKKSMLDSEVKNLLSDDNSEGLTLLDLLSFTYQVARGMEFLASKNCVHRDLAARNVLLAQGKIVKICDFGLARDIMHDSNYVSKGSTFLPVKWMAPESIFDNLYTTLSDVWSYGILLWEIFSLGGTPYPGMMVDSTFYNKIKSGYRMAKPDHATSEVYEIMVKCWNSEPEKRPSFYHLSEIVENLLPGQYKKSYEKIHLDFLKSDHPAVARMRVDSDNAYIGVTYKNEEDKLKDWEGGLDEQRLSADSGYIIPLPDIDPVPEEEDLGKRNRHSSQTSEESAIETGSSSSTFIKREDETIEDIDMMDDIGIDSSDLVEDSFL

B1: truncated human PDGF-CC homodimer, PDGF/VEGF homology domain only (core domain, residues 230-345; recombinant, baculovirus-infected Sf9 cells, C-terminal … (ligand, not shown: small tags and cut ends)
chain: GRKSRVVDLNLLTEEVRLYSCTPRNFSVSIREELKRTDTIFWPGCLLVKRCGGNCACCLHNCNECQCVPSKVTKKYHEVLQLRPKTGVRGLHKSLTDVALEHHEECDCVCRGSTGG
notes: Secreted disulfide-bonded dimer (36 kDa non-reduced, 24 kDa monomer); also called cPDGF-CC; truncated PDGF-C
B1: binds [1]; no binding (human PDGF beta-receptor).

B2: truncated human PDGF-C expressed in 293 cells from a mammalian expression plasmid (35S-labelled conditioned medium) (ligand)
chain: GRKSRVVDLNLLTEEVRLYSCTPRNFSVSIREELKRTDTIFWPGCLLVKRCGGNCACCLHNCNECQCVPSKVTKKYHEVLQLRPKTGVRGLHKSLTDVALEHHEECDCVCRGSTGG
notes: also called truncated PDGF-C; radiolabeled PDGF-C
B2: no binding (VEGFR-1-Ig); no binding (VEGFR-2-Ig); no binding (VEGFR-3-Ig).

B3: human PDGF-BB homodimer (ligand, UniProt P01127 82-190, looked up)
chain: SLGSLTIAEPAMIAECKTRTEVFEISRRLIDRTNANFLVWPPCVEVQRCSGCCNNRNVQCRPTQVQLRPVQVRKIEIVRKKPIFKKATVTLEDHLACKCETVAAARPVT
modifications: 125I label on the tracer form
notes: also called labeled PDGF-BB
B3: binds [2].
